Results reported in IntAct's records for PubMed 16390871.

B1: Hsp90 co-chaperone Cdc37 (Schizosaccharomyces pombe (strain ATCC 38366 / 972)), O94740 (parent)
chain: MAIDYSKWDKLELSDDSDIEVHPNVDKKSFIRWRQRDIHEKRAVRKQKMEDIKGAMAMNRRLLSRISEMETVLEKESPSDPYVLLGSFLEAKKSEDMDSAIPGGMSYHHMLMSLLKVIKDAEDTTEEKSMDDSDKCLRRLKSHKERLLKLLEDAQKEYDTLEAESKNYITSEDLHLGFDSTYVQKKEPEKPKKTKTKKETIQVIESLNNPTPPTDFPGAKEQASTGNAPKNPVNENESEDEEGLSLSEDGKKFANIDFGDYSSSEEFLKEHLNILADEEESDAILLEAFNAELEGKPSLAKQYVHQALLISYCRQLGPNGLSIFFQKIKDPNHQSQRLFLEDVHNTYVRIHERSAAISKEQAESGEGVEQIQLCAVDPNTKLSITIPEAGSTDPETQKARAAFESFPPNLQKALMTNDLDKINVVLGKMAVENAEEVVEKLSSTGMLSIEEGIIDTTKGETIPQLS

Variants of: B1
Conditions: with cdk1_schpo cdc2, P04551
Sequence of cdk1_schpo cdc2, P04551 (P04551 whole entry): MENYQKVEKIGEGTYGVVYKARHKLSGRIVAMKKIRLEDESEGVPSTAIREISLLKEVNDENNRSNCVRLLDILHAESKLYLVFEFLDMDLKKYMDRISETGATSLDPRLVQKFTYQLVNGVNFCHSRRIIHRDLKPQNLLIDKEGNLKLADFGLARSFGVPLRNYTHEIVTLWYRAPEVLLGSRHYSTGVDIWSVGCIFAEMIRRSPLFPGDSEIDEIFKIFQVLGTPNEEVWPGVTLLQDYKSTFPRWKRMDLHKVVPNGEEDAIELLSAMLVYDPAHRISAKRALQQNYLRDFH
In the case of MAIDYSKWDKLELSDDSDIEVHPNVDKKSFIRWRQRDIHEKRAVRKQKMEDIKGAMAMNRRLLSRISEMETVLEKESPSDPYVLLGSFLEAKKSEDMDSAIPGGMSYHHMLMSLLKVIKDAEDTTEEKSMDDSDKCLRRLKSHKERLLKLLEDAQKEYDTLEAESKNYITSEDLHLGFDSTYVQKKEPEKPKKTKTKKETIQVIESLNNPTPPTDFPGAKEQASTGNAPKNPVNENESEDEEGLSLSEDGKKFANIDFGDYSSSEEFLKEHLNILADEEESDAILLDAFNAELEGKPSLAKQYVHQALLISYCRQLGPNGLSIFFQKIKDPNHQSQRLFLEDVHNTYVRIHERSAAISKEQAESGEGVEQIQLCAVDPNTKLSITIPEAGSTDPETQKARAAFESFPPNLQKALMTNDLDKINVVLGKMAVENAEEVVEKLSSTGMLSIEEGIIDTTKGETIPQLS [E287D], the “effect of a mutation on the interaction” value is reported as “decreasing interaction”.
With MAIDYSKWDKLELSDDSDIEVHPNVDKKSFIRWRQRDIHEKRAVRKQKMEDIKGAMAMNRRLLSRISEMETVLEKESPSDPYVLLGSFLEAKKSEDMDSAIPGGMSYHHMLMSLLKVIKDAEDTTEEKSMDDSDKCLRRLKSHKERLLKLLEDAQKEYDTLEAESKNYITSEDLHLGFDSTYVQKKEPEKPKKTKTKKETIQVIESLNNPTPPTDFPGAKEQASTGNAPKNPVNENESEDEEGLSLSEDGKKFANIDFGDYSSSEEFLKEHLNILADEEESDAIPLEAFNAELEGKPSLAKQYVHQALLISYCRQLGPNGLSIFFQKIKDPNHQSQRLFLEDVHNTYVRIHERSAAISKEQAESGEGVEQIQLCAVDPNTKLSITIPEAGSTDPETQKARAAFESFPPNLQKALMTNDLDKINVVLGKMAVENAEEVVEKLSSTGMLSIEEGIIDTTKGETIPQLS [L285P] the “effect of a mutation on the interaction” value was “decreasing interaction”.
